1 molecule from publication PMC7261193, “The ancillary N-terminal region of the yeast AP-1 transcription factor Yap8 contributes to its DNA binding specificity” can be followed below.

As usually defined, the Kd is the equilibrium constant for the complex coming apart.

What all share (conditions): protein: recombinant; tags: GST (N-term); chain copies: 2; label: 5' FAM; blunt
One data set concerns the target T1, GST-Yap8-N20A (Saccharomyces cerevisiae, UniProt Q06596 1-294, N20A).
T1 sequence: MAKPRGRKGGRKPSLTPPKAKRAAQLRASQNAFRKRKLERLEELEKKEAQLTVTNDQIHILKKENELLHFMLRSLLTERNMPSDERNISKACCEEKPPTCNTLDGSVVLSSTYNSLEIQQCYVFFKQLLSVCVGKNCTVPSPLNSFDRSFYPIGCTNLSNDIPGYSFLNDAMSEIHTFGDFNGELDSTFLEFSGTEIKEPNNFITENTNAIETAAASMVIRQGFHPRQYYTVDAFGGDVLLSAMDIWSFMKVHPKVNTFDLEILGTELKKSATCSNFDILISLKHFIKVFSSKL
As to the kind of experiment: fluorescence anisotropy; series a; FA: 10 mM Tris-HCl pH 8, 50 mM NaCl, 0.5% NP-40, 1 mM DTT, 5% glycerol, 1 nM DNA, 25C (half volume protein elution buffer). Biotin EMSA: LightShift 1x buffer, 50 ng poly(dI-dC), 2.5% glycerol, 0.05% NP-40, 5 mM MgCl2, 20 fmol probe, RT 20 min. 32P EMSA: 10 mM Tris-HCl pH 8.0, 50 mM NaCl, 1 mM DTT, 0.05% NP-40, 100 ng poly(dI-dC), 6% glycerol, 4C 30 min. (In general: Fluorescence polarisation rises when a labelled molecule tumbles more slowly, as on binding a larger partner.)

Data set [1] has as its target T2, GST-Yap8 WT (Saccharomyces cerevisiae, UniProt Q06596 1-294).
T2 sequence: T1 sequence with A20N
Described as above.

The target of data set [2] is T2, GST-Yap8 WT. As to the kind of experiment: fluorescence anisotropy; series c; FA: 10 mM Tris-HCl pH 8, 50 mM NaCl, 0.5% NP-40, 1 mM DTT, 5% glycerol, 1 nM DNA, 25C (half volume protein elution buffer). Biotin EMSA: LightShift 1x buffer, 50 ng poly(dI-dC), 2.5% glycerol, 0.05% NP-40, 5 mM MgCl2, 20 fmol probe, RT 20 min. 32P EMSA: 10 mM Tris-HCl pH 8.0, 50 mM NaCl, 1 mM DTT, 0.05% NP-40, 100 ng poly(dI-dC), 6% glycerol, 4C 30 min.

The next data set concerns the target T3, GST-Yap8-R11A (Saccharomyces cerevisiae, UniProt Q06596 1-294, R11A).
T3 sequence: T1 sequence with R11A, A20N
As to the kind of experiment: fluorescence anisotropy; series b; FA: 10 mM Tris-HCl pH 8, 50 mM NaCl, 0.5% NP-40, 1 mM DTT, 5% glycerol, 1 nM DNA, 25C (half volume protein elution buffer). Biotin EMSA: LightShift 1x buffer, 50 ng poly(dI-dC), 2.5% glycerol, 0.05% NP-40, 5 mM MgCl2, 20 fmol probe, RT 20 min. 32P EMSA: 10 mM Tris-HCl pH 8.0, 50 mM NaCl, 1 mM DTT, 0.05% NP-40, 100 ng poly(dI-dC), 6% glycerol, 4C 30 min.

The next data set deals with T4, GST-Yap8-R7A (Saccharomyces cerevisiae, UniProt Q06596 1-294, R7A).
T4 sequence: T1 sequence with R7A, A20N
The description is as above.

The target of data set [3] is T2, GST-Yap8 WT. The data set is described as above.

Numbering of substitutions follows the chain as printed.

B1: ACR3-WT (FAM) (dsDNA)
DNA 1: CTTTTTGTTTGATTAATAATCAACTTTAGCG
DNA 2: CGCTAAAGTTGATTATTAATCAAACAAAAAG
Take B1: the Kd with GST-Yap8-N20A was 25.5 ± 4.3 nM; with GST-Yap8 WT [1], 9.9 ± 1.4 nM; in the data set with GST-Yap8 WT [2], 10.8 ± 3.5 nM; with GST-Yap8-R11A it was 18.9 ± 2.9 nM; in the data set with GST-Yap8-R7A, 13.4 ± 1.7 nM; with GST-Yap8 WT [3], 10.8 ± 1.7 nM.
